Test results taken from patent publication US20230416345A1, “NEW TYPE II COLLAGEN BINDING PROTEINS” (Navigo Proteins GmbH, priority 2020, published 2023).

What was measured:
[1] = system: pig eye sections; test: Immunohistochemistry staining on pig eye sections; conditions: formalin-fixed paraffin-embedded pig eyes; 5 μM or 500 nM protein, 45 min
Description: Sections of formalin-fixed paraffin-embedded pig eyes were deparaffinated with xylol and rehydrated with a descending concentration series of ethanol. For antigen retrieval slices were incubated in TE-buffer, pH 9.0 for 5 min. at 110° C. After blocking of endogenous peroxidases with peroxidase blocking solution (Novolink Polymer™ Detection System, Leica, RE7140-K) slices were incubated with 5 μM or 500 nM of CID 211999 (dimer), CID 212000 (dimer), CID 212001 (tetramer) for 45 min at rt. Subsequently binding of proteins was detected with rabbit-anti-StrepTag-antibody (Genscript, A00026) at a dilution of 1:500 and Novolink Polymer™ Detection System. Anti-Collagen Type II antibody (Abcam, #ab34712) at a dilution of 1:10 served as positive control. Tissue slices were incubated with antibodies for 30 min. Washing steps were performed with TBS pH 7.6. For visualization, AEC-staining (Dako, K3461) was used and after washing with water, nuclei were stained with Mayers Hamalum solution (Merck, 1.09249.0500). Results see FIG. 5.

[2] = biological target: T1, hCol2 (human Type II collagen) (Homo sapiens, UniProt P02458); test: Binding analysis by SPR (Biacore 3000) vs human type II collagen; conditions: dimers or tetramers; Langmuir 1:1 model
T1 construct: purchased Chondrex
Description: (§1) Proteins with affinity tag were purified by affinity chromatography and size exclusion. After affinity chromatography purification using Strep-Tactin Superflow high capacity cartridges (IBA Lifesciences) a size exclusion chromatography (SEC) was performed using an Äkta system and a Superdex™ 200 HiLoad 16/600 column (Cytiva). Fused variants with Aflibercept were purified via MabSelect SuRe (Cytiva) affinity chromatography followed by a size exclusion chromatography (SEC) using an Äkta system and a Superdex™ 200 HiLoad 16/600 column (Cytiva). All chromatography processing steps were carried out on AKTA systems using matrices from Cytiva. Homogenous species of all purified ligands were obtained; no aggregation was detected. Following SOS-PAGE analysis positive fractions were pooled and their protein concentrations were measured. Further analysis included SOS-PAGE, SE-HPLC and RP-HPLC. Protein concentrations were determined by absorbance measurement at 280 nm using the molar absorbent coefficient. Reversed phase chromatography (RP-HPLC) was performed using a Dionex HPLC system and a PLRP-S (5 μm, 300 Å) column (Agilent). Analytic size exclusion chromatography (SE-HPLC) was performed using a Dionex HPLC system and a Superdex200 increase 5/150 GL (Cytiva). Binding of Collagen II was evaluated by SPR measurements using a Biacore 3000 system. Purified Collagen II was obtained from Chondrex.inc and VEGF-165 was obtained from Millipore. Targets were immobilized on a CM5-Sensor via NHS/EDC chemistry (immobilization level ˜1000 RU). Binding molecules were injected at different concentration and affinity was calculated by langmuir 1:1 binding model.
The purified proteins were immobilized on a CM-5 sensor chip (GE Healthcare) using NHS/EDC after PDEA activation resulting in 110-140 RU with a Biacore 3000 system (GE Healthcare). The chip was equilibrated with SPR running buffer (PBS 0.05% Tween pH 7.3). Upon binding, target analyte was accumulated on the surface increasing the refractive index. This change in the refractive index was measured in real time and plotted as response or resonance units versus time. The analytes were applied to the chip in serial dilutions with a flow rate of 30 μl/min. The association was performed for 120 seconds and the dissociation for 120 seconds. After each run, the chip surface was regenerated with 30 μl regeneration buffer (10 mM glycine pH 2.0) and equilibrated with running buffer.
Binding studies were carried out by the use of the BIAcore 3000 (GE Healthcare); data evaluation was operated via the BIAevaluation 3.0 software, provided by the manufacturer, using the Langmuir 1:1 model (RI=0). Evaluated dissociation constants (KD) were standardized against the immobilized protein and indicated. Shown is the change in refractive index measured in real time and plotted as response or resonance unit [RU] versus time [sec].

[3] = Soluble expression in Escherichia coli BL21(DE3); format: physicochemical; conditions: expression in E. coli BL21(DE3)
Description: Variants with affinity tag were expressed in Escherichia coli BL21(DE3) using a low copy plasmid system under regulation of a T7 promoter. Proteins were produced in soluble form after induction by lactose included in the medium (autoinduction medium). BL21 (DE3) competent cells were transformed with the expression plasmid, spread onto selective agar plates (kanamycin) and incubated overnight at 37° C. Precultures were inoculated from single colony in 3 ml 2×YT medium supplemented with 50 μg/ml kanamycin and cultured for 6 hours at 37° C. at 200 rpm in a conventional orbital shaker in culture tubes. […] Cultures were transferred to an orbital shaker and incubated at 30° C. and 200 rpm. Recombinant protein expression was induced by metabolizing glucose and subsequently allowing lactose to enter the cells. Cells were grown overnight for approx. 17 hours to reach a final OD600 of about 2-4. Before the harvest, the OD600 was measured, samples adjusted to 0.6/OD600 were withdrawn, pelleted and frozen at −20° C. To collect biomass cells were centrifuged at 12000×g for 15 min at 22° C. Pellets were weighed (wet weight). Cells were stored at −20° C. before processing.
as §1

[4] = biological target: T2, recombinant human collagen type II (h Col II) (Homo sapiens, UniProt P02458); test: KD-determination by ELISA vs human collagen type II; format: binding; conditions: type II collagen; tetramers: of different species
T2 construct: purchased Chondrex CHX-20051
Description: High binding plates (Greiner, 781061) were immobilized with 2.5 μg/ml recombinant human collagen type II (h Col II, Chondrex, CHX-20051), rabbit collagen type II (rbCol II, prepared from rabbit eyes), porcine collagen type II (p Col II, prepared from porcine eyes), human collagen type I, (h Col I, Sigma, C5483-1MG), human collagen type V (h Col V, Abcam, ab7537), human collagen type III (h Col Ill, Abcam, ab7535) and 67B89 (domain of fibronectin, produced in E. coli) respectively over night at 4° C. ELISA-plates were washed 3 times with PBST (PBS+ 0.1% Tween) and blocked with 3% BSA/0.5% Tween/PBS 2 h at RT. After washing with PBST, dilution series of 1.1 μM to 7×10^−4 nM of dimers (CID 211999, CID 212000), dilution series of 100 nM to 7×10^−6 nM of tetramers (CID 212001 and CID 212704) and dilution series of 10 μM to 2 nM of dimer (CID 212705) were incubated on ELISA-plates 1 h at rt. Plates were washed with PBST and incubated with biotinylated anti-StrepTag-ab (Antikörper-online, ABIN1573895) with a dilution of 1:10.000 for 1 h at rt. The binding was visualized with a-rabbit-IgG-HRP (Sigma, A9169) with a dilution of 1:10.000 and as substrate TMB Plus von KEM EN TEC Diagnostic, Kat-Nr. 4395.

T2 sequence (P02458 182-1241): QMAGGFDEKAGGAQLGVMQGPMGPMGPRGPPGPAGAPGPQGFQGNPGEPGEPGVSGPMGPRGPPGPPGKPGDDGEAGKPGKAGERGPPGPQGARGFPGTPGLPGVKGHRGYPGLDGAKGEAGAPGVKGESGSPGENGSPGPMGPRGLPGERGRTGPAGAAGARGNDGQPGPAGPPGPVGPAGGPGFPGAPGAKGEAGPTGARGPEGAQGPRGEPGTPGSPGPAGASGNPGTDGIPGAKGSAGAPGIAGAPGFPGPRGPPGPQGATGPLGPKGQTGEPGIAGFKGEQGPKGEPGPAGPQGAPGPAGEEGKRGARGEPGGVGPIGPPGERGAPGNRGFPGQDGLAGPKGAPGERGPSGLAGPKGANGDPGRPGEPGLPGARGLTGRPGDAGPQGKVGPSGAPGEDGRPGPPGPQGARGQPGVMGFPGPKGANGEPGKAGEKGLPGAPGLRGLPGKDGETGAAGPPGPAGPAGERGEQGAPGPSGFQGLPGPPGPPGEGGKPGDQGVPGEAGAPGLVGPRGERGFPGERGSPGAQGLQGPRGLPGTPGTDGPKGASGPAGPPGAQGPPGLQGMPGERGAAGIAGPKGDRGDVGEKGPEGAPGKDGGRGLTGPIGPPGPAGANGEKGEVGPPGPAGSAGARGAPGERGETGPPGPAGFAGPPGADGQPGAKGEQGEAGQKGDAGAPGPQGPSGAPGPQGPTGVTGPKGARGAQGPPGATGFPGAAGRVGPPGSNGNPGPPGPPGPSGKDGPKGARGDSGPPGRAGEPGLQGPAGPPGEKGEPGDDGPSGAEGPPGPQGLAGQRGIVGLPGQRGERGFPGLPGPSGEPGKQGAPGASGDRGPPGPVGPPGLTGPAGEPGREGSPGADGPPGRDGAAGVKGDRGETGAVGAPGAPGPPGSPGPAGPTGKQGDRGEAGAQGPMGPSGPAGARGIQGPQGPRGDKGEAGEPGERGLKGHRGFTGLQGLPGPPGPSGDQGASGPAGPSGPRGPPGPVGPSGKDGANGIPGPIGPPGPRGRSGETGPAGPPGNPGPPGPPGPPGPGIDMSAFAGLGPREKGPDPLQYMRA
T1 sequence (P02458 182-1241): as above

Affinity [SPR] vs hCol2 [2]: 180 nM | binding affinity (KD) to type II collagen by ELISA, in words [4]: 1-2-digit nM
B1: CID 212000: dimer of SEQ ID NO: 2 (dimer with linker between the monomers) (protein)
chain: IAAKFDEAQSAADSEILHLPNLTEQQRHYFRRWLSDDPSVSTHILTQAQHLNDDQAPKGGGGSGGGGSGGGGSGGGGSIAAKFDEAQSAADSEILHLPNLTEQQRHYFRRWLSDDPSVSTHILTQAQHLNDDQAPKSAWSHPQFEK
modifications: Col2 binding protein (dimer of 211261) (CID212000)
IHC staining of pig eye sections [1]: staining of retina, inner limiting membrane (arrow) and vitreous body of pig eye | Solubility Soluble expression [3]: 100%
